{"source": "IntAct's records for PubMed 19805289", "parents": {"B1": {"name": "ATP-dependent RNA helicase DBP5 (Saccharomyces cerevisiae), P20449 (parent)", "chain": "MSDTKRDPADLLASLKIDNEKEDTSEVSTKETVKSQPEKTADSIKPAEKLVPKVEEKKTKQEDSNLISSEYEVKVKLADIQADPNSPLYSAKSFDELGLAPELLKGIYAMKFQKPSKIQERALPLLLHNPPRNMIAQSQSGTGKTAAFSLTMLTRVNPEDASPQAICLAPSRELARQTLEVVQEMGKFTKITSQLIVPDSFEKNKQINAQVIVGTPGTVLDLMRRKLMQLQKIKIFVLDEADNMLDQQGLGDQCIRVKRFLPKDTQLVLFSATFADAVRQYAKKIVPNANTLELQTNEVNVDAIKQLYMDCKNEADKFDVLTELYGLMTIGSSIIFVATKKTANVLYGKLKSEGHEVSILHGDLQTQERDRLIDDFREGRSKVLITTNVLARGIDIPTVSMVVNYDLPTLANGQADPATYIHRIGRTGRFGRKGVAISFVHDKNSFNILSAIQKYFGDIEMTRVPTDDWDEVEKIVKKVLKD", "partner": "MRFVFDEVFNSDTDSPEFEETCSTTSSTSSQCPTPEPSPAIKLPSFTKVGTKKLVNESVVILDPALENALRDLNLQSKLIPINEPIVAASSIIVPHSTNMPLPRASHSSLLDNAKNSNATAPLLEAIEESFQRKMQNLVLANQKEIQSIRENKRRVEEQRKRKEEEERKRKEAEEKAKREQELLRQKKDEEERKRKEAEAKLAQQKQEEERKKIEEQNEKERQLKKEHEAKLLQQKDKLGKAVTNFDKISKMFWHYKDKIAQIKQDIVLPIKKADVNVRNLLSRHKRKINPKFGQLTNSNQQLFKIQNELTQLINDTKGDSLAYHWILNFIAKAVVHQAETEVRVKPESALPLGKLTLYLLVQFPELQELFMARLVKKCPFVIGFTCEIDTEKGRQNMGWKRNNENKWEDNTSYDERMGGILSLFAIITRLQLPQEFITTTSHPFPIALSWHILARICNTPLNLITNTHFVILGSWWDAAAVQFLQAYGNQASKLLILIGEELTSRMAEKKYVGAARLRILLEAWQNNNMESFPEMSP"}}, "data": [{"variants_of": "B1", "conditions": "with gle1_yeast GLE1, Q12315", "values": [{"variant": "MSDTKRDPADLLASLKIDNEKEDTSEVSTKETVKSQPEKTADSIKPAEKLVPKVEEKKTKQEDSNLISSEYEVKVKLADIQADPNSPLYSAKSFDELGLAPELLKGIYAMKFQKPSKIQERALPLLLHNPPRNMIAQSQSGTGKTAAFSLTMLTRVNPEDASPQAICLAPSRELARQTLEVVQEMGKFTKITSQLIVPDSFEKNKQINAQVIVGTPGTVLDLMRRKLMQLQKIKIFVLDEADNMLDQQGLGDQCIRVKRFLPKDTQLVLFSATFADAVRQYAKKIVPNANTLELQTNEVNVDAIKQLYMDCKNEADKFDVLTELYGLMAIGSSIIFVATKKTANVLYGKLKSEGHEVSILHGDLQTQERDRLIDDFREGRSKVLITTNVLARGIDIPTVSMVVNYDLPTLANGQADPATYIHRIGRTGRFGRKGVAISFVHDKNSFNILSAIQKYFGDIEMTRVPTDDWDEVEKIVKKVLKD", "note": "[T329A]", "effect of a mutation on the interaction": "decreasing interaction"}, {"variant": "MSDTKRDPADLLASLKIDNEKEDTSEVSTKETVKSQPEKTADSIKPAEKLVPKVEEKKTKQEDSNLISSEYEVKVKLADIQADPNSPLYSAKSFDELGLAPELLKGIYAMKFQKPSKIQERALPLLLHNPPRNMIAQSQSGTGKTAAFSLTMLTRVNPEDASPQAICLAPSRELARQTLEVVQEMGKFTKITSQLIVPDSFEKNKQINAQVIVGTPGTVLDLMRRKLMQLQKIKIFVLDEADNMLDQQGLGDQCIRVKRFLPKDTQLVLFSATFADAVRQYAKKIVPNANTLELQTNEVNVDAIKQLYMDCKNEADKFDVLTELYGLMTIGSSIIFVATKKTANVLYGKLKSKGHEVSILHGDLQTQERDRLIDDFREGRSKVLITTNVLARGIDIPTVSMVVNYDLPTLANGQADPATYIHRIGRTGRFGRKGVAISFVHDKNSFNILSAIQKYFGDIEMTRVPTDDWDEVEKIVKKVLKD", "note": "[E353K]", "effect of a mutation on the interaction": "decreasing interaction"}, {"variant": "MSDTKRDPADLLASLKIDNEKEDTSEVSTKETVKSQPEKTADSIKPAEKLVPKVEEKKTKQEDSNLISSEYEVKVKLADIQADPNSPLYSAKSFDELGLAPELLKGIYAMKFQKPSKIQERALPLLLHNPPRNMIAQSQSGTGKTAAFSLTMLTRVNPEDASPQAICLAPSRELARQTLEVVQEMGKFTKITSQLIVPDSFEKNKQINAQVIVGTPGTVLDLMRRKLMQLQKIKIFVLDEADNMLDQQGLGDQCIRVKRFLPKDTQLVLFSATFADAVRQYAKKIVPNANTLELQTNEVNVDAIKQLYMDCKNEADKFDVLTELYGLMTIGSSIIFVATKKTANVLYGKLKSEGHEVSILHGDLQTQERDRLIDDFREGRSKVLITTNVLARGIDIPTVSMVVNYDLPTLANGQADPATYIHRIGRTGRFGRKGVAISFVHDKNSFNILSAIQKYFGDIEMTRVPTDDWDEVAKIVKKVLKD", "note": "[E473A]", "effect of a mutation on the interaction": "decreasing interaction"}, {"variant": "MSDTKRDPADLLASLKIDNEKEDTSEVSTKETVKSQPEKTADSIKPAEKLVPKVEEKKTKQEDSNLISSEYEVKVKLADIQADPNSPLYSAKSFDELGLAPELLKGIYAMKFQKPSKIQERALPLLLHNPPRNMIAQSQSGTGKTAAFSLTMLTRVNPEDASPQAICLAPSRELARQTLEVVQEMGKFTKITSQLIVPDSFEKNKQINAQVIVGTPGTVLDLMRRKLMQLQKIKIFVLDEADNMLDQQGLGDQCIRVKRFLPKDTQLVLFSATFADAVRQYAKKIVPNANTLELQTNEVNVDAIKQLYMDCKNEADKFDVLTELYGLMTIGSSIIFVATKKTANVLYGKLKSEGHEVSILHGDLQTQERDRLIDDFREGRSKVLITTNVLARGIDIPTVSMVVNYDLPTLANGQADPATYIHRIGRTGRFGRKGVAISFVHDKNSFNILSAIQKYFGDIEMTRVPTDDWDEVKKIVKKVLKD", "note": "[E473K]", "effect of a mutation on the interaction": "disrupting interaction"}, {"variant": "MSDTKRDPADLLASLKIDNEKEDTSEVSTKETVKSQPEKTADSIKPAEKLVPKVEEKKTKQEDSNLISSEYEVKVKLADIQADPNSPLYSAKSFDELGLAPELLKGIYAMKFQKPSKIQERALPLLLHNPPRNMIAQSQSGTGKTAAFSLTMLTRVNPEDASPQAICLAPSRELARQTLEVVQEMGKFTKITSQLIVPDSFEKNKQINAQVIVGTPGTVLDLMRRKLMQLQKIKIFVLDEADNMLDQQGLGDQCIRVKRFLPKDTQLVLFSATFADAVRQYAKKIVPNANTLELQTNEVNVDAIKQLYMDCKNEADKFDVLTELYGLMTIGSSIIFVATKKTANVLYGKLKSEGHEVSILHGDLQTQERDRLIDDFREGRSEVLITTNVLARGIDIPTVSMVVNYDLPTLANGQADPATYIHRIGRTGRFGRKGVAISFVHDKNSFNILSAIQKYFGDIEMTRVPTDDWDEVEKIVKKVLKD", "note": "[K382E]", "effect of a mutation on the interaction": "disrupting interaction"}, {"variant": "MSDTKRDPADLLASLKIDNEKEDTSEVSTKETVKSQPEKTADSIKPAEKLVPKVEEKKTKQEDSNLISSEYEVKVKLADIQADPNSPLYSAKSFDELGLAPELLKGIYAMKFQKPSKIQERALPLLLHNPPRNMIAQSQSGTGKTAAFSLTMLTRVNPEDASPQAICLAPSRELARQTLEVVQEMGKFTKITSQLIVPDSFEKNKQINAQVIVGTPGTVLDLMRRKLMQLQKIKIFVLDEADNMLDQQGLGDQCIRVKRFLPKDTQLVLFSATFADAVRQYAKKIVPNANTLELQTNEVNVDAIKQLYMDCKNEADKFDVLTKLYGLMTIGSSIIFVATKKTANVLYGKLKSEGHEVSILHGDLQTQERDRLIDDFREGRSKVLITTNVLARGIDIPTVSMVVNYDLPTLANGQADPATYIHRIGRTGRFGRKGVAISFVHDKNSFNILSAIQKYFGDIEMTRVPTDDWDEVEKIVKKVLKD", "note": "[E323K]", "effect of a mutation on the interaction": "disrupting interaction"}]}, {"variants_of": "B1", "conditions": "with gle1_yeast GLE1, Q12315", "remark": "another data set of the same source", "values": [{"variant": "MSDTKRDPADLLASLKIDNEKEDTSEVSTKETVKSQPEKTADSIKPAEKLVPKVEEKKTKQEDSNLISSEYEVKVKLADIQADPNSPLYSAKSFDELGLAPELLKGIYAMKFQKPSKIQERALPLLLHNPPRNMIAQSQSGTGKTAAFSLTMLTRVNPEDASPQAICLAPSRELARQTLEVVQEMGKFTKITSQLIVPDSFEKNKQINAQVIVGTPGTVLDLMRRKLMQLQKIKIFVLDEADNMLDQQGLGDQCIRVKRFLPKDTQLVLFSATFADAVRQYAKKIVPNANTLELQTNEVNVDAIKQLYMDCKNEADKFDVLTELYGLMTIGSSIIFVATKKTANVLYGKLKSEGHEVSILHGDLQTQERDRLIDDFREGRSKVLITTNVLARGIDIPTVSMVVNYDLPTLANGQADPATYIHRIGRTGRFGRKGVAISFVHDKNSFNILSAIQKYFGDIEMTRVPTDDWDEVKKIVKKVLKD", "note": "[E473K]", "effect of a mutation on the interaction": "decreasing interaction"}, {"variant": "MSDTKRDPADLLASLKIDNEKEDTSEVSTKETVKSQPEKTADSIKPAEKLVPKVEEKKTKQEDSNLISSEYEVKVKLADIQADPNSPLYSAKSFDELGLAPELLKGIYAMKFQKPSKIQERALPLLLHNPPRNMIAQSQSGTGKTAAFSLTMLTRVNPEDASPQAICLAPSRELARQTLEVVQEMGKFTKITSQLIVPDSFEKNKQINAQVIVGTPGTVLDLMRRKLMQLQKIKIFVLDEADNMLDQQGLGDQCIRVKRFLPKDTQLVLFSATFADAVRQYAKKIVPNANTLELQTNEVNVDAIKQLYMDCKNEADKFDVLTELYGLMTIGSSIIFVATKKTANVLYGKLKSEGHEVSILHGDLQTQERDRLIDDFREGRSEVLITTNVLARGIDIPTVSMVVNYDLPTLANGQADPATYIHRIGRTGRFGRKGVAISFVHDKNSFNILSAIQKYFGDIEMTRVPTDDWDEVEKIVKKVLKD", "note": "[K382E]", "effect of a mutation on the interaction": "decreasing interaction"}, {"variant": "MSDTKRDPADLLASLKIDNEKEDTSEVSTKETVKSQPEKTADSIKPAEKLVPKVEEKKTKQEDSNLISSEYEVKVKLADIQADPNSPLYSAKSFDELGLAPELLKGIYAMKFQKPSKIQERALPLLLHNPPRNMIAQSQSGTGKTAAFSLTMLTRVNPEDASPQAICLAPSRELARQTLEVVQEMGKFTKITSQLIVPDSFEKNKQINAQVIVGTPGTVLDLMRRKLMQLQKIKIFVLDEADNMLDQQGLGDQCIRVKRFLPKDTQLVLFSATFADAVRQYAKKIVPNANTLELQTNEVNVDAIKQLYMDCKNEADKFDVLTKLYGLMTIGSSIIFVATKKTANVLYGKLKSEGHEVSILHGDLQTQERDRLIDDFREGRSKVLITTNVLARGIDIPTVSMVVNYDLPTLANGQADPATYIHRIGRTGRFGRKGVAISFVHDKNSFNILSAIQKYFGDIEMTRVPTDDWDEVEKIVKKVLKD", "note": "[E323K]", "effect of a mutation on the interaction": "decreasing interaction"}]}]}
